Results reported in the supplement of paper PMC12764529.
± gives the half width of the 95% confidence interval.

Experiments:
[1] = folding stability dG unfold (combined trypsin and chymotrypsin); higher = more stable
Procedure, shortened: (§1)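 Unfolding free energy was derived, per protease or combined, against a sequence-predicted unfolded-state K50 and a shared folded-state K50, starting from K50 inferred by Bayesian fitting of sequencing counts. Digestion with trypsin and chymotrypsin was carried out on designed mini-proteins under 80 residues without cysteine in a PA-tagged cDNA display construct. Only designs with AlphaFold2 dimer inter-PAE above 15 were kept.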

[2] = folding stability dG unfold from chymotrypsin proteolysis; higher = more stable
Procedure, shortened: as §1

[3] = folding stability dG unfold from trypsin proteolysis; higher = more stable
Method: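 Folding stability of de novo designed mini-proteins (<80 aa, no Cys; designed by TrROS, TrMRF, ProteinMPNN and the joint model) was measured by cDNA display proteolysis with trypsin and chymotrypsin. Each protease was used at 11 concentrations in a threefold dilution series plus a no-protease condition. K50 was inferred by Bayesian fitting of sequencing counts, and dG unfold was derived against a sequence-predicted unfolded-state K50 (Tsuboyama et al. method). Sequences shown include variable-length N-terminal GS-type padding (SAGGSAGG...) inside a display construct carrying a PA tag. Rows were kept only if the AF2 dimer inter-PAE was >15, to exclude likely homo-oligomers.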

| Sequence | folding stability dG unfold [1] [kJ/mol] | folding stability dG unfold [2] [kJ/mol] | folding stability dG unfold [3] [kJ/mol] |
| --- | --- | --- | --- |
| SAGGSASPVTVTYTDPNSTVLESVYTPSSGIVYVKYKVGDKWYLVTVKLDPSGSSVSSVTKEPLPPSAGGSA [r15_297_JUSTAS] | 8.16 ± 0.18 | 8.9 ± 0.172 | 6.5 ± 0.167 |
| SAGGSAGGSAERTLTITVPAAPGDIPALVAPDGSVYGIGDFEVIPGEGRVELKVTLVKPGDASAGGSAGGSA [r18_116_TrMRF] | -0.095 ± 0.213 | 0.886 ± 0.134 | -3.68 ± 0.418 |
| SAGIPLGPEQLRALAEELAEEFKKKLAEELGLSPEDIKLLSIRRLPDGSIEIELEIPDRTYRYTFPLPDSAG [r5_565_JUSTAS] | 13 ± 0.669 | 12.6 ± 0.176 | 13.4 ± 0.711 |
| SAGGSAKIRYIKVLLRFPPKGEKKIIVIPIENIPEDRPEELIELAKAIAEAFVEGTGAEVEGIEISSAGGSA [r15_1013_TrMRF] | 16.9 ± 0.544 | 16.2 ± 0.301 | 18.2 ± 0.837 |
| KIWIPNASWSQIKNIIRNAIKDGKERTIWIPMDPNMKPNIIDYLKDLPGIKDVEPYPNGWVKIEIDKAELKS [r1_324_TrROS] | 11.7 ± 0.753 | 13.5 ± 0.318 | 8.37 ± 0.247 |
| SAGPPIWIRAEIEHPRPNPDDGEPQERKREVWIRLPEDLLENGMPVEELAKELASNYPGYKVKIDEILSAGG [r19_110_TrROS] | 0.667 ± 0.628 | -3.83 ± 1.59 | 2.31 ± 0.109 |
| SAGGSRRLEFMFYNPEAGFLIKIEVTYDPDDPGYYKIRVEVYPPDGEPIFPVEIYVPPGDDIKIKFPSAGGS [r16_654_TrROS] | 18 ± 1.21 | 18.5 ± 0.544 | 14.8 ± 1.46 |
| SAGKARIVEYDEESGTITIEVDGKTIEIELAPGETAEITLEENEDGTLTLTITVNGKTLTLTIPLDDLKSAG [r5_500_TrROS_Hall] | 13.2 ± 0.544 | 14.5 ± 0.502 | 10.9 ± 0.753 |
| SAGGSASIPEKIAEELKEKYGVTEIKILSVDPNGIIKVELKSIEKNEGKLIEKTYKVTVKVPKNLLSAGGSA [r15_646_JUSTAS] | 8.97 ± 0.326 | 9.32 ± 0.142 | 7.79 ± 0.297 |
| SAGGTAEEIAETIAEKFSKKNNNPNVRITVEKEPDSLRIDITFPNNGHEIEIEFEDGGIRKIEWEPYSAGGS [r16_397_TrROS] | -1.13 ± 3.93 | -1.05 ± 3.56 | 1.16 ± 1.13 |
| SAGGEEKEKLREAIRAALDEAIKEGKKIKKIVIVASPEKKEEIAKLLEEEGLLENLEIEVVSPEELKSAGGS [r16_164_TrROS_Hall] | 5.31 ± 1.05 | 2.78 ± 0.586 | 7.29 ± 0.301 |
| SAGGSAMKLTAETTDPGSDRFEATIYDPSDSGGDSVVSFESEEELEAFIKNLPSSVASVSLVPTSPSAGGSA [r15_589_JUSTAS] | 3.05 ± 0.138 | 1.58 ± 0.146 | 4.11 ± 0.0711 |
| SAGSIPLDIAKSLGGKTEVSSSPVPLGGGMTATLTTVTATLPDKIVTITITTLADPTVTEVTITTEPIKSAG [r5_323_JUSTAS] | 4.78 ± 0.544 | 5.15 ± 0.163 | 4.37 ± 0.285 |
| SAGGSAGGSATLTIDELRELLEKLGIDVEELSEEEIAELLKKLYPNARVERNENGELTIHPSAGGSAGGSAG [r3_375_TrROS_Hall] | 12.5 ± 0.586 | 11.6 ± 0.502 | 14 ± 0.402 |
| SAGGSAGGSAKELLKNIEKVEIIKNKKTNKYTIRIKNKNGKVYEFEFKSLEEALKKAGIKPSAGGSAGGSAG [r3_36_TrROS_Hall] | 12.3 ± 0.305 | 13.4 ± 0.159 | 9.39 ± 0.172 |
| SAGGSAGGSAGGYSAIIIFPTEFDNKLYYAAVELESPSEELHEGDIKSVILAPLNTPILSAGGSAGGSAGGS [r10_730_TrMRF] | 6.87 ± 0.192 | 5.89 ± 0.18 | 8.06 ± 0.402 |
| SAGGSAGGSAGSFTVLVTEVLDPDDPLYLKLQKELGLPPENIVRFKLYTFSSPEEVKKKISAGGSAGGSAGG [r11_83_TrMRF] | 6.27 ± 0.272 | 8.32 ± 0.544 | 3.86 ± 0.146 |
| SAGGSAGGSAGGLKPGEKLVFKTETKTLKLKAKVFNKDTGEEFEVEVELTVTRIEVYPLSAGGSAGGSAGGS [r10_1116_TrROS_Hall] | 20 ± 1.38 | 20.8 ± 0.92 | 12.7 ± 1.3 |
